B1: DNA-Binding protein, P69542 (parent)
chain: MIKVEIKPSQAQFTTRSGVSRQGKPYSLNEQLCYVDLGNEYPVLVKITLDEGQPAYAPGLYTVHLSSFKVGQFGSLMIDRLRLVPAK

In the data set the parent is B1. As to conditions: Enterobacteria phage fd; pH 7; 25 °C; GdnHCl; CD; MOPS 50 mM; NaCl 100 mM; reversible: yes; structure 1VQB; whole UniProt chain shown.

Experimental findings from FireProtDB (doi:10.1073/pnas.88.5.1706) are described below.

V35L I47V: the “ddG of mutation (higher = less stable)” value worked out at 5 kcal/mol, the denaturant m value came to 4.2 kcal/mol/M, the “denaturant midpoint (higher = more stable)” value (“denaturant midpoint” below) was found to be 1.32 M and the unfolding free energy came to 4 kcal/mol.

Take V35L I47M: the “ddG of mutation (higher = less stable)” value was found to be 5.3 kcal/mol, the denaturant m value stood at 5 kcal/mol/M, the “denaturant midpoint” value is 1.37 M and the unfolding free energy was determined as 3.7 kcal/mol.

Regarding V35L I47F, the “ddG of mutation (higher = less stable)” value was 3.94 kcal/mol, the denaturant m value amounted to 4.3 kcal/mol/M, the “denaturant midpoint” value was determined as 1.6 M and the unfolding free energy was found to be 5.1 kcal/mol.

On to V35L I47L, for which the “ddG of mutation (higher = less stable)” value amounted to 3.5 kcal/mol, the denaturant m value came out at 4.3 kcal/mol/M, the “denaturant midpoint” value was 1.7 M and the unfolding free energy is 5.5 kcal/mol.

Turning to V35M I47M, the “ddG of mutation (higher = less stable)” value was 3.5 kcal/mol, the denaturant m value was determined as 3.8 kcal/mol/M, the “denaturant midpoint” value worked out at 1.65 M and the unfolding free energy is 5.5 kcal/mol.

V35M I47F: the “ddG of mutation (higher = less stable)” value was found to be 2.3 kcal/mol, the denaturant m value turned out to be 4.7 kcal/mol/M, the “denaturant midpoint” value is 1.99 M and the unfolding free energy was found to be 6.8 kcal/mol.

V35M I47L: the “ddG of mutation (higher = less stable)” value was found to be 1.6 kcal/mol, the denaturant m value amounted to 4.1 kcal/mol/M, the “denaturant midpoint” value is 2.14 M and the unfolding free energy came to 7.4 kcal/mol.

For V35F I47L, the “ddG of mutation (higher = less stable)” value came to 4.1 kcal/mol, the denaturant m value came to 3.9 kcal/mol/M, the “denaturant midpoint” value is 1.51 M and the unfolding free energy is 4.9 kcal/mol.

On to V35A I47M, for which the “ddG of mutation (higher = less stable)” value came out at 4.4 kcal/mol, the denaturant m value was 4.2 kcal/mol/M, the “denaturant midpoint” value amounted to 1.47 M and the unfolding free energy is 4.6 kcal/mol.

As for V35A I47L, the “ddG of mutation (higher = less stable)” value came to 2.9 kcal/mol, the denaturant m value was 4.5 kcal/mol/M, the “denaturant midpoint” value worked out at 1.85 M and the unfolding free energy turned out to be 6.1 kcal/mol.

Regarding V35A I47V, the “ddG of mutation (higher = less stable)” value is 4.4 kcal/mol, the denaturant m value was 4.5 kcal/mol/M, the “denaturant midpoint” value came to 1.5 M and the unfolding free energy turned out to be 4.6 kcal/mol.

Regarding V35C I47C, the “ddG of mutation (higher = less stable)” value was found to be 7.1 kcal/mol, the denaturant m value was 4.9 kcal/mol/M, the “denaturant midpoint” value was determined as 0.99 M and the unfolding free energy came out at 1.9 kcal/mol.

V35A: the “ddG of mutation (higher = less stable)” value amounted to 2.2 kcal/mol, the denaturant m value came to 3.9 kcal/mol/M, the “denaturant midpoint” value was 2.01 M and the unfolding free energy was 6.9 kcal/mol.

Turning to V35M, the “ddG of mutation (higher = less stable)” value is 1 kcal/mol, the denaturant m value worked out at 3.6 kcal/mol/M, the “denaturant midpoint” value came out at 2.33 M and the unfolding free energy was 8 kcal/mol.

With V35L, the “ddG of mutation (higher = less stable)” value was 2.7 kcal/mol, the denaturant m value turned out to be 4.5 kcal/mol/M, the “denaturant midpoint” value was 1.9 M and the unfolding free energy is 6.4 kcal/mol.

V35F: the “ddG of mutation (higher = less stable)” value was determined as 3.1 kcal/mol, the denaturant m value is 3.8 kcal/mol/M, the “denaturant midpoint” value was 1.76 M and the unfolding free energy was 5.9 kcal/mol.

On to V35I, for which the “ddG of mutation (higher = less stable)” value worked out at 0.6 kcal/mol, the denaturant m value is 3.6 kcal/mol/M, the “denaturant midpoint” value was 2.44 M and the unfolding free energy was found to be 8.4 kcal/mol.

As for V35C, the “ddG of mutation (higher = less stable)” value amounted to 1.4 kcal/mol, the denaturant m value is 4.1 kcal/mol/M, the “denaturant midpoint” value turned out to be 2.21 M and the unfolding free energy came to 7.7 kcal/mol.

I47V: the “ddG of mutation (higher = less stable)” value was 2.5 kcal/mol, the denaturant m value was determined as 3.9 kcal/mol/M, the “denaturant midpoint” value worked out at 1.91 M and the unfolding free energy stood at 6.5 kcal/mol.

As to I47M, the “ddG of mutation (higher = less stable)” value worked out at 2.1 kcal/mol, the denaturant m value came out at 3.9 kcal/mol/M, the “denaturant midpoint” value turned out to be 2.02 M and the unfolding free energy is 6.9 kcal/mol.

Regarding I47A, the “ddG of mutation (higher = less stable)” value came to 7 kcal/mol, the denaturant m value worked out at 4.3 kcal/mol/M, the “denaturant midpoint” value came out at 0.87 M and the unfolding free energy turned out to be 2 kcal/mol.

Turning to I47L, the “ddG of mutation (higher = less stable)” value stood at 0.6 kcal/mol, the denaturant m value stood at 3.7 kcal/mol/M, the “denaturant midpoint” value is 2.43 M and the unfolding free energy is 8.4 kcal/mol.

For the variant V35I I47F, the “ddG of mutation (higher = less stable)” value was found to be 2 kcal/mol, the denaturant m value is 4.4 kcal/mol/M, the “denaturant midpoint” value turned out to be 2.05 M and the unfolding free energy came to 7 kcal/mol.

As to V35I I47V, the “ddG of mutation (higher = less stable)” value was 3 kcal/mol, the denaturant m value came to 4.1 kcal/mol/M, the “denaturant midpoint” value is 1.8 M and the unfolding free energy is 6 kcal/mol.

With V35I I47L, the “ddG of mutation (higher = less stable)” value turned out to be 1.1 kcal/mol, the denaturant m value turned out to be 4.2 kcal/mol/M, the “denaturant midpoint” value stood at 2.27 M and the unfolding free energy stood at 7.9 kcal/mol.

As to V35I I47M, the “ddG of mutation (higher = less stable)” value was determined as 2.8 kcal/mol, the denaturant m value is 4.2 kcal/mol/M, the “denaturant midpoint” value was found to be 1.87 M and the unfolding free energy was found to be 6.3 kcal/mol.
